Laboratory results from patent US20180155413A1 (AstraZeneca / MedImmune, published 2018).

Key:
Assay in all cases: cell-based or functional assay
[1] = biological target: HA protein derived from A/South Dakota/6/2007 H1N1, on stably transfected MDCK cells (influenza A virus)
[2] = biological target: HA of B/Phuket/3073/2013 (yamagata) (influenza B virus)
[3] = biological target: HA of B/Yamagata/16/88 (yamagata) (influenza B virus)
[4] = biological target: HA of ca A/chicken/Hong Kong/G9/97 (H9N2) (influenza A virus)
HA of B/Lee/40 = HA of B/Lee/40 (influenza B virus, UniProt P03460 16-584)
Sequence of HA of B/Lee/40 (P03460 16-584 limits assumed): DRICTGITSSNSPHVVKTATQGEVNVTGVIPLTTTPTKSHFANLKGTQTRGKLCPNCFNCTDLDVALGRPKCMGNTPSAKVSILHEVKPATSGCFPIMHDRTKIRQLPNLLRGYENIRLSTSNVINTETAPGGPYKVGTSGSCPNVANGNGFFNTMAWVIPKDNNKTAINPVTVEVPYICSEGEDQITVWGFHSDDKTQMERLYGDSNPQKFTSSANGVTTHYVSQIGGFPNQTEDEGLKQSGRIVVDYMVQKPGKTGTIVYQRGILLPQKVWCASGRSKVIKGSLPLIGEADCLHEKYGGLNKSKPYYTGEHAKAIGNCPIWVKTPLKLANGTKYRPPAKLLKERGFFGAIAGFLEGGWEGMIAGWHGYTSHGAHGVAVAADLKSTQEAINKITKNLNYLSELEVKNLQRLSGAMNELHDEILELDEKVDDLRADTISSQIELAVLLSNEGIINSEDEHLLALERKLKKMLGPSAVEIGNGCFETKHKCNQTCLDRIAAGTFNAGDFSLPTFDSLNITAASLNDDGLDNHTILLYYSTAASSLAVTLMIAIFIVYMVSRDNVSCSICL

[5] = biological target: HA of ca B/Georgia/02/98 (yamagata) (influenza B virus)
[6] = biological target: HA of B/Malaysia/2506/2004 (victoria) (influenza B virus)
[7] = biological target: HA of A/New York/39/2012 (H3N2) (influenza A virus)
[8] = biological target: HA of ca B/Victoria/504/2000 (yamagata) (influenza B virus)

B1: GL20 IgG (antibody, V domains shown)
VH: QVQLQQSGPGLVKPSQTLSLTCAISGDSVSSYNAVWNWIRQSPSRGLEWLGRTYYRSGWYNDYAESVKSRITINPDTSKNQFSLQLNSVTPEDTAVYYCARSGHITVFGVNVDAFDMWGQGTMVTVSS
VL: DIQMTQSPSSLSASVGDRVTITCRTSQSLSSYTHWYQQKPGKAPKLLIYAASSRGSGVPSRFSGSGSGTDFTLTISSLQPEDFATYYCQQSRTFGQGTKVEIK
EC50 (read off the curve), ADCP % double positive [1]: ~0.04 nM

B2: GL20/39 BiS4 100/44 (bispecific antibody)
light: DIQMTQSPSSLSASVGDRVTITCRTSQSLSSYTHWYQQKPGKAPKLLIYAASSRGSGVPSRFSGSGSGTDFTLTISSLQPEDFATYYCQQSRTFGQGTKVEIKRTVAAPSVFIFPPSDEQLKSGTASVVCLLNNFYPREAKVQWKVDNALQSGNSQESVTEQDSKDSTYSLSSTLTLSKADYEKHKVYACEVTHQGLSSPVTKSFNRGEC
heavy: not shown
Neutralization (IC50) [2]: 15.4 nM | Neutralization (IC50) [3]: 1.3 nM | Neutralization (IC50) [4]: 1.6 nM | Neutralization (IC50) (HA of B/Lee/40): 1 nM | Neutralization (IC50) [5]: 1 nM | Neutralization (IC50) [6]: 33 nM | Neutralization (IC50) [7]: 0.5 nM | Neutralization (IC50) [8]: 1.3 nM
